This note sets out measurements from paper PMC5435981.

The target in this data set is APOBEC3A E72A (A3A-E72A) (Homo sapiens, UniProt P31941 1-199, E72A). Nature of the data set: ITC. A general note: In ITC the heat of successive injections is recorded.
Chain of APOBEC3A E72A (A3A-E72A) (P31941 whole entry E72A): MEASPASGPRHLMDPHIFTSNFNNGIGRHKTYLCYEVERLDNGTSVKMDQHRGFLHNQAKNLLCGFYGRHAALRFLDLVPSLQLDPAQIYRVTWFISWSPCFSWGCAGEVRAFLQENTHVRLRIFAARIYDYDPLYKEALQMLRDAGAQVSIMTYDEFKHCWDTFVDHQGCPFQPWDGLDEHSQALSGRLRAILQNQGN

AATTCAAAA (ssDNA) [A2TTCA4] gave a Kd of 17 ± 6 µM.

The term Kd denotes the free concentration of one partner at which half of the binding sites on the other are occupied at equilibrium, for simple one-to-one binding. Low readings indicate a tighter complex, high ones a looser complex.
